Among the data in a protein production outcome set (Wang et al. 2014) are protein production values, retold here.

The nature of the series: label from the status in PepcDB records.
For the sequence “MSILQGILDTYAQFFDLDMWIKVLQDPVSWGLIGTLVVLEGLLSADNALVLAVMVKHLPEEKRKKALFYGLIGAYVFRFIAIGIGMFLIKLAWVKVLGALYLAWLSVKYFIDKRKGNAEEEEAHGMNQNSILFRMFGVFWGTVAMVELMDIAFSVDSVLAAFGVSNEVWILLLGGMLGILMMRGIAGVFLKLLERIPELETTAYILILIIAAKMLLSVIHIEISHTVFFIILVVAFGATFILHYMKNSGQAKEEVAATKEDNK”, the protein production entry was “failed”.
The entry for “MDEVNVIARITGVSRVRTFERDGREGRFISLDIMDATGSTTYTLWNNDVNLVEELGLKEGDAVKILWAQPRRRDDKVTLTHTSLTRVVPGLEHHHHHH” is “failed”; for “MGSDISQFSASPAARQHTWTLAAYRYMARKRLGGKTAIDLKSVATKSWDIAPGEATVSPPAIFLPGQLDRVTGWEGKRFYPYVHPAQTMAGGIHTLQGPTRGYLIKDVWLVDGALYKGKASHWLSQKPSTFPTILIDHEIDRAAIYCTLNGNAWFGTWLMEDCPTYALACNEGIPVTTAPSARYPLFTQAPAYEDWLDMKPLRLRSAFFRELVLFDDQSNNRSRHARYRAMGDKLLSHVTHTQHPGVFLLRGGDGDLRLLRNELELAEHLRTTRGFRIVNPLKSDVPSIVAACAGAKVVIGVEGSQLVHGVNVLQAGGCLLTLQPPNRFVSYYKYLTDRDHQHFGFVVGLPEGDGFRIDIDEVERTLDLFPR” it is “failed”.
On to “MTTETFLVEIGTEELPPKALRSLAESFATHFTAELDNANITHGDVSWFAAPRRLAIKVANMAKSQADRIVEKRGPAIAQAFDAEGKPTKAAEGWARGNGITVDQAERLSTDKGEWLFYRAEVKGEAVNQLLAGMVSNALAKLPIPKLMRWGDKETHFVRPVHTVTLLLGDTLIDGEILGVQSARIIRGHRFMGEAEFTIDNADQYPEILYERGKVIADYENRKSIILHDARLAAEKLGGVADLSDSLVEEVTSLVEWPVVLTAKFEEKFLEVPAEALVYTMKGDQKYFPVYDKQGALLPHFIFVSNIESSDPQQIISGNEKVVRPRLADAEFFFKTDRKQRLEDNLPRLETVLFQKNLGSLRDKTDRIQALAGFIAEKMGADVNKATRAGLLSKCDLMTNMVFEFTDTQGVMGMHYARHDGEDEEVAVALKEQYQPRFAGDALPSNPVASAVAIAEKMDTLAGIFGIGQHPKGDKDPFALRRAALGVLRIIVEQDLPLDIEELTQEAARLYGDKLTNQNVVSDVVEFMLGRFRAWYQELGYSIDTIQAVLARRPTQPADFNARVKAVTYFRTLEEAAALAEANKRVSNILAKSADVKLNDKVLASVLKAPEEVQLAANLSVLQDKLAPLFAERKYQEALVELASLRDVVNNFFDKVMVMDKDEEIRVNRLTMLHELRELFLKVADISVLQ”, for which the protein production result is given as “failed”.
With “MSLSMRDPVIPGTSMAYHPFLPHRAPDFAMSAVLGHQPPFFPALTLPPNGAAALSLPGALAKPIMDQLVGAAETGIPFSSLGPQAHLRPLKTMEPEEEVEDDPKVHLEAKELWDQFHKRGTEMVITKSGRRMFPPFKVRCSGLDKKAKYILLMDIIAADDCRYKFHNSRWMVAGKADPEMPKRMYIHPDSPATGEQWMSKVVTFHKLKLTNNISDKHGFTLAFPSDHATWQGNYSFGTQTILNSMHKYQPRFHIVRANDILKLPYSTFRTYLFPETEFIAVTAYQNDKITQLKIDNNPFAKGFRDTGNGRREKRKQLTLQSMRVFDERHKKENGTSDESSSEQAAFNCFAQASSPAASTVGTSNLKDLCPSEGESDAEAESKEEHGPEACDAAKISTTTSEEPCRDKGSPAVKAHLFAAERPRDSGRLDKASPDSRHSPATISSSTRGLGAEERRSPVREGTAPAKVEEARALPGKEAFAPLTVQTDAAAAHLAQGPLPGLGFAPGLAGQQFFNGHPLFLHPSQFAMGGAFSSMAAAGMGPLLATVSGASTGVSGLDSTAMASAAAAQGLSGASAATLPFHLQQHVLASQGLAMSPFGSLFPYPYTYMAAAAAASSAAASSSVHRHPFLNLNTMRPRLRYSPYSIPVPVPDGSSLLTTALPSMAAAAGPLDGKVAALAASPASVAVDSGSELNSRSSTLSSSSMSLSPKLCAEKEAATSELQSIQRLVSGLEAKPDRSRSASP”, the protein production result is “failed”.
The entry for “MSDKLFSIVTISFNQAQFLREAVESVLAQKGGDIEYIVVDPGSTDGSREILAEYRSAIDHLILEADHGPGDGLNKGFARANGRYGYFLNSDDFLLPGAIDIMRTLWQRHKNTDVLLCGAWMVDENRRPQRELRPSPVTLEKLLDGEAKIVQQGMSFRMDLFRKVGGFNVGNRTCWDYELLCDFLAAGAAVTQSEARLAAFRIHSASISGGIGGELATKRYLADLDSVYERLTGQKKKPEQRRRAVRLSKRLGSPSHVLLRMRELLAPWTLELRWQADHERKSRRLEHHHHHH” is “failed”.
The entry for “SSAHMSGLEIMDEDQLIKDVLDKFLNCHEQTYDEEFLNTFTHLSQDLLLLPGEVEQDVSTSIPSCIPFVAQPPTCEVKPKPSVKRMDKQTEEILGDEVQLFSLDEEFDYDNVMLTSKFSPAEIENIKELCKQQKRKDTSPDLEKSCD” is “failed”.
The entry for “MSGLLSIFDLSDERGVLRTSIAVTFVISFLGIGFGLFSGSFSIVFDGVYSLIDAGMSLLSLIVVNLITSYAVADHLSRKLRERFSFGLWHLEPMVLGLNGILLISAALYALVTAIGSLLSGGRDLEFGSALIYAAVTVIACAGIAAVEWRANRKIGSEFLRLDVRGWIMSAGISAALLIAFMIGLAVQGTSWQWISPYIDPAVLAAVCVLIIPLPVSTVRQALADIFLVTPVDLKKHLDTVAAAFVAKHGFVSYRAYVARVGRSKEIELYFIVPADAPARTIGEWDMLRDEIGDLVGDDGPNRWLTVVFTGDPEWAE” is “failed”; for “MNVVVTGGRGSSGRWIVDRLVGPHDVTVLDRRLPDDEGHPAVEYQALDLTDAGGVFDTLTAIDPDAVVHWAAIPVAGNHPGVDLFQNNTLAAHNVLSAAGRVGADVVQGSSDGAYGFFFAEETPVPDELPITEKHARRPEDDYGLSKVVTEEIGKTIARRDGISVASIRPSWIQIPGEYPCRSEDYVDDLAAGAGNYWSYVDVRDVADLVEAALTADVAGHETFNCVGPDNALGRPLVELMRDHYGRVPDDCTVEGDAAAYSTAKATERLGWEPTRSWREAADVDVDVPTV” it is “failed”.
As for “MKNRAWLYVILTCIFEIFWVFGFNTANTWWHWIIILGVIAVDFHFLSKACEHLATGTVYAVFAGAGTVGTFLMDVFLFGGSFSVGKLFFIVMVVAGVIGLKLADNKEETVEGAA”, the protein production entry was “failed”.
The result for “MMVAVIPAYNEEKNIISVLKDLSDINIDVIVVDDGSTDKTKTIINEFLEKNEFKNKIFPIFKEKNEGKSKALEDGTNYAINLNYDAIAYLDGDYQHKPSDIIPMYEKMKSENADAVFGIRKYKHIPFHRQFSNFLASVIMSITVSVFSGNFHIFRDIQCGFRIIKSEFLKNSYFGDGYSVEHLIALQLAKKNAKITEEYVTIDYHNDAISYITTKKILDVVKEVAKYVLSKH” reads “failed”; that for “MSMQEMVTISIVTYNSRYIFNVLDQLKAELGTDSIYDIHIYDNHSETAYLEKLTTYEPFITIHRAEENQGFGHGHNQVLFNASTKYAIIFNPDVLVTKDVLDRLLNRIKIDKNIAVVSPKVLNEDGTTQYLVRQKLDVFDYMLRFIPFQFVKKIFDKRLSIYECRDLSDTETTDIKMGSGCFMLIDREKFVEIGGFDERFFMYFEDNDLCLRFGKAGYRILYTPFETVVHMYEKGAHKSRKLFKIFMQSMGKFFNKWGWRFFLEHHHHHH”, “not failed”; that for “MGVTLAKGGNVSLSKAAPNLTQVLVGLGWDARSTTGAPFDLDASALVCSSGRVLGDEWFVFYNQLKSPDGSIEHTGDNLTGEGDGDDESLLVDLSKVPAHCDKIVFPVSIHMADERGQTFGQVSNAFIRVVNQADGQELARYDLSEDASTETAMIFGELYRYQGEWKFRAVGQGYASGLRGIALDFGVNVS”, “not failed”.
For the sequence “MDSGRLAVIALGGNAIAGPGMDVSVESQTAAVKRASSIIADVLADGWRSVITHGNGPQVGYLSEAFEALPPERPRQPLYIATAMTQAWIGLLLKHSLEEELRRRGLNVLVPVVISRVLVDVSDPSFNNPSKPVGPIYGREEAEELSRRYGWVFKRDPRGGFRRVVPSPRPVSIVDRDLIAEASAESPAVVALGGGGVPVVERPGGVLEPVEAVVDKDLASSLLATQLNADLLVILTDVPGVAVNYGREGERWLRRAAASELKKYLREGHFPPGSMGPKVEAAISFVERTGKPAVIGSLEEARQVLSLQAGTVVMLG”, the protein production entry is “not failed”.
Regarding “SEVIRSQKRTVSNDVVSTPTLPLYLTAPHMEVRLEEFELFAIDRLRVLKGVSDGLARARNPNEMDDLVETLWKEHMRLSDVSEMINKDIISHFVLRLVYCRSDELKKWFLSMETAPFRHRFRLKKIEEQRAIVGEFGLPYKAVIGAELESLKERLGLVARSHGQISSDVENIYYKVPFEEVPDLVASRRVLLQKGFAFVAGTQLVSLVVTQFRSHLSKALILTNRKWTTTIREREKDRLTPIVEALSTSYLGPDYSQSNEYADISLKDIDQVSKSSFPLCMRHLFEKLREDHHLKHGGRMQLGLFLKGVGLKLDDALAFWREEFTKKVGSERFDKEYAYAIRHNYGKEGKRTDYTPYACSKIITSAPGAGDHHGCPYRHFSEDNLKAALSRMGLSSRGMEDVMDKVRNRHYQLACTLTFEAVYGTSCDTGINHPNQYFEESQKILKSKTPAAPV”, the protein production entry is on record as “not failed”.
Turning to “MNPGKGPVLRFRVQLLVVGFALALGAAHQAQAAPGRALYKLPDLRVGLGDDNQGDTIPGPTRPNGSIHPSPDTLKASNAGYNPAEPISGFAQLHSQGSGGVTTYGTFLLSPQVGEPVFDEAAHLSPKADETLAADAYSVRLTRYDTKVEITSAHYAAIYRLTYPTTDQAQVVLDVTRKVGGLVASEQADVQLFPEQGRIVGHVKAKGYWNPALIDIWFVAEFDQNPTAWGVFDKAERRDGALSGRTGSDERLGAWLTFKTTPTKPLLVKIAVSFVSAEMAKALLDREIPDWDFERVRRDTQAAWNDRLGQVRVEGMTESQQRRFYSALYHASTHPRDRSLDQPAARLGRPNWDEHYTLWDTYRTLFPLISVLRPSLYTANVNSLIHTFDKFGAADTAIIGGQNYHVGQGGDEVDNVLGEALLRGAEGVNWRDAWRVARFNAFERRRPRYLESGYFAVGDRSPEPNNQRAKSGSSTLGFALNDFYAAQVAAKAGQTDEAKILTERSANWRKIWNPDATSDGFSGFLMPRYADGKFQDIDPKLGWDGKVHNNVGYYEGTAWIYSYGVLHDLPGLVEAMGGRVRFNERLNHALDAGLIDITNEPSFATPWLFHAIGRADLSSRWAGEVVKHFTADAYPGDEDAGAMSSNFVFNSLGLFPKLGSDLYYLHGPRHGRTVIQLENGKTLEILAAKAGASRPYIASASFNGKPLAGPYVSQAQLLGGGVLSLSMSDQPGQWIYEGAVLTVRADQPSLVDGKTSTGWRAASGQSVTFSLKAPACIAAYSVSVGPDQADPSHWTLQAYDGRAWVSVDQQSNVVFDHRHATRTFPLAPGRYARLRWVLDGGSEASVSEVELIAGASCAAPTSGAPLL”, the protein production entry was “failed”.
As for “MAHGPTRQKITLTTEVAAEPAEVWARIGDFQDMSWHPAVHSSTGENGNEIDATRVLSLGAADGPTISEILYKYSDEKMSYSYRITDVLVEVLPVTNYSSHLTVKARDGGGSVIEWRGAFYRGYPNNDPPEDLEHHHHHH”, the protein production result is recorded as “failed”.
